According to article PMC5680806 (mAbs, 2017):
Changes are numbered by the printed parent chain.

B1: Balb-1 (antibody, V domains shown)
VH: QAYLQQSGPELKKPGETVKISCKASGYTFTNYGMNWVKQAPGKGLKWMGWINTNTGEPTYAEEFKGRFAFSLETSASTAYLQINNLKNEDTATYFCASNYYWYFDVWGAGTTVTVSS
VL: DVVLTQSPATLSVTPGDSVSLSCRASQSISNNLHWYQQKSHESPRLLIKYASQSISGIPSRFSGSGSGTDFTLSINSVETEDFGMYFCQQSNSWPLTFGAGTKLELK
B2: SJL-564-1 (antibody, V domains shown)
VH: QAYLQQSGAELARPGASVKLSCKASGYTFTSYGISWVKQRTGQGLEWIGEIYPRSGNTYYNEKFKGKATLTADKSSSTAYMELRSLTSEDSAVYFCARSTYSNYVYAMDYWGQGTSVTVSS
VL: DVVLTQTPLSLPVSLGDQASISCRSSQSIVHSNGNTYLEWYLQKPGQSPKLLIYKVSNRFSGVPDRFSGSGSGTDFTLKISRVEAEDLGVYYCFQGSHVPYTFGGGTKLEIK
B3: SJL-565-1 (antibody, V domains shown)
VH: QAYLQQSGPELVKPGASVKISCKASGYTFTDYYINWVKQRPGQGLEWIGWIYPGSGNTKYNEKFKGKATLTVDTSSSTAYMQLSSLTSEDSAVYFCARSVYDYDEDWGQGTRVTVSA
VL: DIVMTQSQKFMSTSVGDRVSVTCKASQNVGTNVAWYQQKPGQSPKALIYSASYRYSGVPDRFTGSGSGTDFTLTISNVQSEDLAEYFCQQYNSYPFTFGSGTKLEIK
B4: SJL-565-3 (antibody, V domains shown)
VH: B3 VH with Q82H, L83V, A97S, R98S, V100R, R112L
VL: B3 VL

Molecular target: recombinant programmed cell death protein 1 (PD-1) (Homo sapiens, UniProt Q15116)
Sequence (Q15116 25-170): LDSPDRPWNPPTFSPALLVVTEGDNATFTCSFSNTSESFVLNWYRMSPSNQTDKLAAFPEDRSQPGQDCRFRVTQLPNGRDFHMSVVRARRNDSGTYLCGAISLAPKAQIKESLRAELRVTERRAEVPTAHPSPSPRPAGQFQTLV

| Binder | binding result |
| --- | --- |
| B1 | binds |
| B2 | binds |
| B3 | binds |
| B4 | binds |
